Reference: article PMC12518693, “Potent Fluorescent Probe for Target‐Engagement Studies of Allosteric Pyruvate Kinase Modulators” (Angewandte Chemie (International Ed. in English), 2025)
Values joined by “and” are separate entries in the source; they are usually repeats but may differ in a detail not shown here. Identical values can stand only once.

Molecular target: the molecule itself
Assay: native gel or EMSA; recombinant protein incubated with tracer IV (0.15-10 uM) or DMSO at room temperature, native PAGE on 3%-12% bis-tris gel; bands seen by in-gel luminescence (Nluc substrate), colloidal blue staining and western blot; no FBP

B1: PKL-Nluc fusion, nanoluciferase fused to the N-terminus of PKL, recombinant (enzyme)
chain: not shown
notes: Pyruvate kinase, liver isoform (PKL), human; The bands were detected by in-gel luminescence of the Nluc part; source: recombinant, expressed and purified; not shown: Nluc, N-terminal, kept
- stoichiometry N: 4 and 2

B2: liver isoform of pyruvate kinase (PKL), wild type, recombinant (enzyme)
chain: not shown
notes: Pyruvate kinase, liver isoform (PKL), human; The same molecule is used for the native PAGE protein and for the crystallised protein; Construct details are probably in the Supporting Information; also called PKLwt; source: recombinant
- stoichiometry N: 4
